Laboratory results as given in patent US11472855, “RNA-binding protein” (Panitch Schwarze Belisario & Nadel LLP).
Changes are numbered by the printed parent chain.

What was measured:
[1] = tested on: hPUF_MT(R5:G_13R)3(R6:U_13R)3 Y13R in the R6:U repeats; assay: EMSA; conditions: text inconsistent: number 2 greater but prints Tyr>Arg
[2] = tested on: hPUF_MT(R5:A_13R)3(R6:U_13R)3 Y13R in the R6 repeats; assay: EMSA; conditions: 13Y at least 30 times greater
[3] = tested on: hPUF_MT(R5:C_13R)3(R6:U_13R)3 Y13R in the R6:U repeats; assay: EMSA
[4] = tested on: hPUF_MT(R5:A_13R)3(R6:C_13R)3 Y13R in the R6:C repeats; assay: EMSA; conditions: 13Y about 3 times greater
[5] = tested on: hPUF_MT(R5:A_13R)3(R6:G_13R)3 Y13R in the R6:G repeats; assay: EMSA; conditions: 13Y at least 30 times greater
[6] = tested on: hPUF_MT(R5:G_13R)(R5:G_13Y)2(R6:U_13Y)3 R13Y in the second and third R5 repeats (Homo sapiens); assay: EMSA; conditions: FIG. 61; Arg>Tyr between G and U; 4 C; construct name in text appears misprinted as A/G version
[7] = biological target: T1, hPUF_MT(R5:G_13R)3(R6:C_13Y)3; assay: EMSA; conditions: label: Alexa680 at 5' and 3'
T1 chain: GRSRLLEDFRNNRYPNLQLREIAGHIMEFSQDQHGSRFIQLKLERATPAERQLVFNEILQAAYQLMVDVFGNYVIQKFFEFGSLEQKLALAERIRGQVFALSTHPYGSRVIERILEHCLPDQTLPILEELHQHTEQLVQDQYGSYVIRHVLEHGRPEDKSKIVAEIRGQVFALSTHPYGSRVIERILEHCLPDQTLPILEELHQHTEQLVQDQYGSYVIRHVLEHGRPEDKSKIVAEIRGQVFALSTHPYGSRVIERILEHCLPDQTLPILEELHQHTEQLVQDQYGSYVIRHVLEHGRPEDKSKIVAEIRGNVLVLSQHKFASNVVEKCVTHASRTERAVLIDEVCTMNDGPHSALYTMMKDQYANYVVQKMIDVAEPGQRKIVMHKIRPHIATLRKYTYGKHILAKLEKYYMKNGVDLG

[8] = biological target: T2, hPUF_MT(R8_N12S,Q16E, R3→R5, R4→R6) (R8 repeat N12S,Q16E); assay: EMSA; binds G exclusively; conditions: label: Alexa680 at 5' and 3'
T2 chain: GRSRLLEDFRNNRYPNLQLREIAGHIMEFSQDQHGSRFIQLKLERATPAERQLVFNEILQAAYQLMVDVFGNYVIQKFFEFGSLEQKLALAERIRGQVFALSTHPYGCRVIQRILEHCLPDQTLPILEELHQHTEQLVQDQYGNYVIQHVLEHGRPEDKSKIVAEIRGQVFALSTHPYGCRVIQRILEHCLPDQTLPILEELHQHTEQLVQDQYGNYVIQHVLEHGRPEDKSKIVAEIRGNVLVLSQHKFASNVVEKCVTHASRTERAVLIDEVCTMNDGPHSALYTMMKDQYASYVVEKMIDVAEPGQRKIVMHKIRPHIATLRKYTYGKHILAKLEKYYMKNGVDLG

[9] = biological target: T3, hPUF_MT(R3→R5, R4→R6); assay: EMSA; binds U exclusively at R8 position; conditions: label: Alexa680 at 5' and 3'
T3 chain: T2 chain with S295N, E299Q

[10] = biological target: T4, hPUF_MT(1-2-5-6-5-6-5-6-5-6-7-8); assay: EMSA; greater than MT(R3→R5, R4→R6); conditions: label: Alexa680 at 5' and 3'
T4 chain: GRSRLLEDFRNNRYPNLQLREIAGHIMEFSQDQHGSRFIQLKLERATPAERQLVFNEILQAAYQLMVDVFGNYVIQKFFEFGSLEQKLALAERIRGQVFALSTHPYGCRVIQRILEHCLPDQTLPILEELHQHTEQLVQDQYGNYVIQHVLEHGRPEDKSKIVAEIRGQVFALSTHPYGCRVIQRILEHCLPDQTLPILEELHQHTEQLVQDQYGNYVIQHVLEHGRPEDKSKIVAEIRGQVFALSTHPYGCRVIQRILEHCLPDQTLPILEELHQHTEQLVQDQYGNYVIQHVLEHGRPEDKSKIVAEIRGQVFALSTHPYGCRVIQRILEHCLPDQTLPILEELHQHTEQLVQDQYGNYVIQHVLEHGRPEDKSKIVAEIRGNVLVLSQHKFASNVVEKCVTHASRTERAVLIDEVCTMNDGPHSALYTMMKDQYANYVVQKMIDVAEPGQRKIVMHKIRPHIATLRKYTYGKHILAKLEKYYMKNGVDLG

[11] = biological target: T5, hPUF_MT(R7_E16R, R3→R5, R4→R6) (R7 repeat E16R); assay: EMSA; binds C and U; conditions: label: Alexa680 at 5' and 3'
T5 chain: T2 chain with E256R, S295N, E299Q

[12] = biological target: T6, hPUF_MT(R7_S12N,E16Q, R3→R5, R4→R6) (R7 repeat S12N,E16Q); assay: EMSA; binds U exclusively; conditions: label: Alexa680 at 5' and 3'
T6 chain: T2 chain with S252N, E256Q, S295N, E299Q

[13] = biological target: T3, hPUF_MT(R3→R5, R4→R6); assay: EMSA; binds G exclusively at R7 position; conditions: label: Alexa680 at 5' and 3'
[14] = biological target: T7, hPUF_MT(R2_N12S,Q16R, R3→R5, R4→R6) (R2 repeat N12S,Q16R); assay: EMSA; binds C exclusively; conditions: label: Alexa680 at 5' and 3'
T7 chain: T2 chain with N72S, Q76R, S295N, E299Q

[15] = biological target: T8, hPUF_MT(R2_N12S,Q16E, R3→R5, R4→R6) (R2 repeat N12S,Q16E); assay: EMSA; binds G exclusively; conditions: label: Alexa680 at 5' and 3'
T8 chain: T2 chain with N72S, Q76E, S295N, E299Q

[16] = biological target: T9, hPUF_MT(R5:C_13R)3(R6:U_13Y)3; assay: EMSA; conditions: label: Alexa680 at 5' and 3'
T9 chain: T1 chain with E112R, S144N, R148Q, E184R, S216N, R220Q, E256R, S288N, R292Q

“CCAGAAUUGUGUGUGUAUUCG [OTS-2004 (Example 5-6)]” was tested, and the binding signal (fold of R6 13Y protein) [1] was 3.

CCAGAAUUGUAUAUAUAUUCG [OTS-1844] gave a binding signal (fold of 13Y protein) [2] of less than 0.033.

Molecule CCAGAAUUGUCUCUCUAUUCG [OTS-2006] has a binding signal (fold of 13Y protein) [3] of 0.1.

With “CCAGAAUUGCACACAUAUUCG [OTS-2004 (Example 5-4)]” the binding signal (fold of 13Y protein) [4] was 0.33.

CCAGAAUUGGAGAGAUAUUCG [OTS-2008] showed a binding signal (fold of 13Y protein) [5] of less than 0.033.

“CCAGAAUUGUGUGUGUAUUCG [OTS-2004 (Example 5-6, GU repeat)]” gave a binding signal (fold weaker than (R5:G 13R)3(R6:U 13Y)3) [6] of 30.

B1: OTS-2007 (ssRNA)
RNA: CCAGAAUUGCGCGCGUAUUCG
B1: binds [7].

B2: OTS-2034 (ssRNA)
RNA: CCAGAAUGGUAUAUAUUCG
B2: binds [8]; no binding [9].

B3: OTS-1924 (ssRNA)
RNA: CCAGAAUUGUAUAUAUAUAUUCG
B3: binds [10].

B4: OTS-2033 (ssRNA)
RNA: CCAGAAUUCUAUAUAUUCG
B4: binds [11]; no binding [12]; no binding [13].

B5: OTS-2025 (ssRNA)
RNA: CCAGAAUUGUAUACAUUCG
B5: binds [14]; no binding [15].

B6: OTS-2006 (ssRNA)
RNA: CCAGAAUUGUCUCUCUAUUCG
B6: binds [16].

B7: OTS-2023 (ssRNA)
RNA: CCAGAAUUGUAUAAAUUCG
B7: no binding [14]; no binding [15].

B8: OTS-1754 (ssRNA)
RNA: CCAGAAUUAUAUAUAUUCG
B8: no binding [13].

B9: OTS-2024 (ssRNA)
RNA: CCAGAAUUGUAUAGAUUCG
B9: no binding [14]; binds [15].
